# Source: paper PMC7577714, “Regulation of chaperone function by coupled folding and oligomerization” (Science Advances, 2020)
# Experiments:
# Skp(V117P) (E. coli) = Skp(V117P) (E. coli) (UniProt P0AEU7); assay: solution NMR (signal intensities of monomer and trimer) + SEC-MALS; fraction of monomer against total Skp concentration, 25°C, 20 mM MES pH 6.5, 150 mM NaCl; monomer to trimer; C0.5 is the protein concentration at which half of the molecules are monomeric
# [1] = biological target: tOmpA, the eight-stranded transmembrane domain of OmpA (residues 1 to 177); assay: NMR quantification of Skp-bound tOmpA after complex assembly (holdase assay); excess of denatured [U-2H,15N]-tOmpA added dropwise to unlabeled Skp in 20 mM MES pH 6.5, 150 mM NaCl, aggregate spun down, tOmpA signals in 2D [15N,1H]-TROSY of the supernatant, 37°C, normalised to Skp(WT)
# [2] = biological target: the molecule itself; assay: SEC-MALS; Skp variants alone, elution concentration ≃80 μM, 25°C, 20 mM MES pH 6.5, 150 mM NaCl; monomer to trimer
# P0AEU7 [3] = assay: as above
# [4] = biological target: the molecule itself; assay: as above; remark: listed apart in the source
# [5] = biological target: the molecule itself; assay: solution NMR (signal intensities of monomer and trimer) + SEC-MALS; fraction of monomer against total Skp concentration, 25°C, 20 mM MES pH 6.5, 150 mM NaCl; monomer to trimer; C0.5 is the protein concentration at which half of the molecules are monomeric
# [6] = biological target: the molecule itself; assay: as above; remark: listed apart in the source
# P0AEU7 [7] = assay: solution NMR (signal intensities of monomer and trimer); Skp variants alone at 37°C, 20 mM MES pH 6.5, 150 mM NaCl; monomer to trimer; settings: other: solution NMR (signal intensities of monomer and trimer)
Molecule,C0.5 (Skp(V117P) (E. coli)) [µM],"Skp activity (% of WT), amount of Skp-bound tOmpA [1]",stoichiometry N [2],Monomer (%) at c ≃ 80 μM (P0AEU7 [3]) [%],Trimer (%) at c ≃ 80 μM [4] [%],C0.5 [5] [µM],stoichiometry N [6],"monomer (%) at 1 mM, 37°C (P0AEU7 [7])",monomer (%) at 37°C (P0AEU7 [7])
Skp(V117P) (from UniProt P0AEU7 21-161) (natural protein),> 1000,1 % of WT,,,,,,,
"Skp(WT), seventeen kilodalton protein, periplasmic chaperone of Escherichia coli (natural protein, E. coli, UniProt P0AEU7 21-161, looked up, Stands in a monomer-trimer equilibrium; the active form is the homotrimer; The thrombin-cleavable His6-tag of pET28b was not cleaved; Isotope-labelled for NMR in some samples; source: E. coli BL21-(λ DE3)-Lemo, purified (Ni-NTA, SEC); not shown: His6, N-terminal, kept) ADKIAIVNMGSLFQQVAQKTGVSNTLENEFKGRASELQRMETDLQAKMKKLQSMKAGSDRTKLEKDVMAQRQTFAQKAQAFEQDRARRSNEERGKLVTRIQTAVKSVANSQDIDLVVDANAVAYNSSDVKDITADVLKQVK",,100 % of WT,3,3,97,1.5,,,
"Skp(A103R) (natural protein, E. coli, UniProt P0AEU7 21-161, looked up, Monomer-trimer equilibrium shifted toward the monomer; source: E. coli BL21-(λ DE3)-Lemo, purified (Ni-NTA, SEC); not shown: His6, N-terminal, kept) ADKIAIVNMGSLFQQVAQKTGVSNTLENEFKGRASELQRMETDLQAKMKKLQSMKAGSDRTKLEKDVMAQRQTFAQKAQAFEQDRARRSNEERGKLVTRIQTRVKSVANSQDIDLVVDANAVAYNSSDVKDITADVLKQVK",,87 % of WT,,14,86,7 ± 2,3,,
"Skp(A103L) (natural protein, E. coli, UniProt P0AEU7 21-161, looked up, Monomer-trimer equilibrium essentially as the wild type; source: E. coli BL21-(λ DE3)-Lemo, purified (Ni-NTA, SEC); not shown: His6, N-terminal, kept) ADKIAIVNMGSLFQQVAQKTGVSNTLENEFKGRASELQRMETDLQAKMKKLQSMKAGSDRTKLEKDVMAQRQTFAQKAQAFEQDRARRSNEERGKLVTRIQTLVKSVANSQDIDLVVDANAVAYNSSDVKDITADVLKQVK",,100 % of WT,,6,94,1.5,3,,
"Skp(A108R) (natural protein, E. coli, UniProt P0AEU7 21-161, looked up, Fully monomeric up to 1 mM; source: E. coli BL21-(λ DE3)-Lemo, purified (Ni-NTA, SEC); not shown: His6, N-terminal, kept) ADKIAIVNMGSLFQQVAQKTGVSNTLENEFKGRASELQRMETDLQAKMKKLQSMKAGSDRTKLEKDVMAQRQTFAQKAQAFEQDRARRSNEERGKLVTRIQTAVKSVRNSQDIDLVVDANAVAYNSSDVKDITADVLKQVK",,1 % of WT,,,,> 1000,,,
"Skp(A108L) (natural protein, E. coli, UniProt P0AEU7 21-161, looked up, Monomer-trimer equilibrium strongly shifted toward the monomer; also called Skp(108L); source: E. coli BL21-(λ DE3)-Lemo, purified (Ni-NTA, SEC); not shown: His6, N-terminal, kept) ADKIAIVNMGSLFQQVAQKTGVSNTLENEFKGRASELQRMETDLQAKMKKLQSMKAGSDRTKLEKDVMAQRQTFAQKAQAFEQDRARRSNEERGKLVTRIQTAVKSVLNSQDIDLVVDANAVAYNSSDVKDITADVLKQVK",,55 % of WT,,53,47,80 ± 20,3,around 95% monomer at a concentration of 1 mM,more than 80% in its monomeric state
